Consider one molecule from patent publication US10428308B2, “Mesoderm and definitive endoderm cell populations” (Icahn School of Medicine at Mount Sinai, priority 2005, dated 2019).

In one test the test system is EBs. Description: Hematopoietic progenitor potential of activin-induced EBs. It is filed as cell-based, mouse. As to conditions: day 7 activin-induced EBs, no serum. Here is the method: FIGS. 24A and 24B show the hematopoietic progenitor content of EBs differentiated in the presence of different concentrations of activin. A) Progenitor potential of day 7 EBs, Ep are primitive erythroid progenitors, mac/mix represent definitive hematopoietic progenitors. B) Progenitor potential of day 7 activin-induced EBs following 2.5 days of exposure to serum.
For the generation of blast cell colonies (BL-CFC assay), EB-derived cells were plated at 0.5×-1.5×10^5 cells/ml in 1% methylcellulose supplemented with 10% FCS (Hyclone), vascular endothelial growth factor (VEGF; 5 ng/ml), c-kit ligand (KL; 1% conditioned medium), IL-6 (5 ng/ml) and 25% D4T endothelial cell conditioned medium (Kennedy et al. (1997) Nature 386:488-93). Transitional colonies were generated in the absence of VEGF. Colonies were scored following four days of culture. […] Primitive erythroid colonies were scored at day 5-6 of culture, whereas definitive erythroid (BFU-E), macrophage, and multilineage colonies were counted at 7-10 days of culture. […]
To further evaluate the hematopoietic potential of these EBs, they were analyzed for progenitor potential.

Test [1] concerns EBs (HNF3β, Hex1 expression). As to the kind of experiment: Antibody staining for HNF3β and Hex1 in activin-induced EBs. It is filed as cell-based, mouse. The procedure: To better estimate the proportion of endodermal progenitors in the activin-induced EBs, cells from cultures stimulated with 100 ng/ml activin were stained with antibodies against HNF3β and Hex1. EBs from un-induced cultures were used as controls (Activin-). A significant portion of the activin induced population (estimated at 50-60% of total) expressed both HNF3β and Hex1. None of the cells in the un-induced EBs expressed these proteins.
To quantify the differential response of activin, cells stimulated with different concentrations of activin were adhered to coverslips and stained with the anti-HNF3β antibody. More than 50% of the entire EB population stimulated with 100 ng/ml of activin expressed HNF3β whereas only 10% of the cells stimulated with 3 ng/ml were positive.

B1: activin: growth factor purchased from R&D systems; induces mesoderm and endoderm (protein, UniProt P08476 311-426, looked up)
Inhibin beta A chain: GLECDGKVNICCKKQFFVSFKDIGWNDWIIAPSGYHANYCEGECPSHIAGTSGSSLSFHSTVINHYRMRGHSPFANLKSCCVPTKLRPMSMLYYDDGQNIIKKDIQNMIVEECGCS
Take B1: in the test on EBs, the “primitive (Ep) or definitive (mac/mix) hematopoietic progenitors” value was “no appreciable numbers”. Besides, the “cells positive for HNF3β” value in test [1] (activin 3 ng/ml, anti-HNF3β antibody) was 10%. For the same molecule, the “entire EB population expressing HNF3β” value in test [1] (activin 100 ng/ml, anti-HNF3β antibody) was “More than 50%”. For the same molecule, the “portion of population expressing both HNF3β and Hex1” value in test [1] (activin 100 ng/ml, antibody staining, estimated) is given as 50-60 % of total.
